The target of the experiment is T1, E. coli replicative helicase DnaB, purified (E. coli, UniProt P0ACB0 1-471).
T1 construct: replicative helicase DnaB, E. coli; Construct and purification are in the Supplemental Experimental Procedures; also called E. coli DnaB
Nature of the experiment: not stated; apparent KD (equilibrium dissociation constant), Figure S5; the method is not told in the text shown (SPR is the only quantitative binding method that the paper names). The settings on record: both partners purified.

Drawing on paper PMC2807033, “Rep Provides a Second Motor at the Replisome to Promote Duplication of Protein-Bound DNA” (Molecular Cell, 2009), this text covers Kd for 1 molecule.

No end group written: not given here. *: point of attachment. Biotin = O=C1N[C@H]2[C@H](CS[C@H]2CCCCC(=O)*)N1

T1 sequence (P0ACB0 whole entry): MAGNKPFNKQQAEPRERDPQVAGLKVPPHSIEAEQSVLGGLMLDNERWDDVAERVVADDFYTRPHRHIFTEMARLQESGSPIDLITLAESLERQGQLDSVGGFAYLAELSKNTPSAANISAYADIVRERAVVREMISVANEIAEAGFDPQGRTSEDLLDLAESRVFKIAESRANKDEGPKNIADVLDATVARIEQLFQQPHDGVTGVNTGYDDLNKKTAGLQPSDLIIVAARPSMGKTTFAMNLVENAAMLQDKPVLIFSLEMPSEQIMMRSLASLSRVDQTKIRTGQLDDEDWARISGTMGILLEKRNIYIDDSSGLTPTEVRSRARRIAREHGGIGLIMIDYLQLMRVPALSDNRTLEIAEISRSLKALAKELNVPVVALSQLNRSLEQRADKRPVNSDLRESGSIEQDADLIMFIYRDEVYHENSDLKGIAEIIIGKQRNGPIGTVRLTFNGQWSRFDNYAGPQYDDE

B1: C33^Rep peptide (synthetic peptide corresponding to the C-terminal 33 residues of Rep) (peptide, UniProt P09980 641-673, looked up)
peptide: Biotin-EQERKVVSAEERMQKGQSHLANLKAMMAAKRGK
notes: C-terminal 33 residues of Rep helicase, E. coli; also called the Rep C terminus; source: synthetic peptide; not shown: biotin tag, N-terminal, kept
For B1, the Kd was less than 100 nM.
